The target of the assay is human full-length Sirt1 (human) (UniProt Q96EB6).
human full-length Sirt1 (human), sequence (Q96EB6 whole entry): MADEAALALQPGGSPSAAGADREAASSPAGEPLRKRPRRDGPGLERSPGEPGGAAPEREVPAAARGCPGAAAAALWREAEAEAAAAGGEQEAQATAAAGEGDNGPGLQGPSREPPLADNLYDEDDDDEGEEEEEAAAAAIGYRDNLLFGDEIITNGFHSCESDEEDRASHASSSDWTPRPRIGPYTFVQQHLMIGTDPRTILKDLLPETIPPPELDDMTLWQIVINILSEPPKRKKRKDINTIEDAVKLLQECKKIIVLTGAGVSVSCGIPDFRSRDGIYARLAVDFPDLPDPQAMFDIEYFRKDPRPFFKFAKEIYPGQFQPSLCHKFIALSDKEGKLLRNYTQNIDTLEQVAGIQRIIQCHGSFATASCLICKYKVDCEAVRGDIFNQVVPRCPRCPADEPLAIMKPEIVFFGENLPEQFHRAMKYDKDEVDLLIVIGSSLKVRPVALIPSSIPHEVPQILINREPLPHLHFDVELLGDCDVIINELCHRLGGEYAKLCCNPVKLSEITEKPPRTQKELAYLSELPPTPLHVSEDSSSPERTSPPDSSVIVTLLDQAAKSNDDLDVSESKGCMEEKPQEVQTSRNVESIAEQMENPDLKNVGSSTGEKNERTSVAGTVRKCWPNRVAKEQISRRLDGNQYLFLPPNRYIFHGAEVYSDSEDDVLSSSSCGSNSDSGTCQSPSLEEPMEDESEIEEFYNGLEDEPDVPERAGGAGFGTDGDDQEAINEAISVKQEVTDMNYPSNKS

Take “Tat-Cys^−-(21–63) (from UniProt P12506 21-63) (domain or fragment)”: the inhibition of fl-Sirt1 in the FdL assay at 100 µM FdL-1; potency (IC50) amounted to 30 µM.
“Tat-Cys^−-(1–63) (from UniProt P12506 1-63) (domain or fragment)” came in with an inhibition of fl-Sirt1 in the FdL assay at 100 µM FdL-1; IC50 of 10 µM.

The record behind these values is paper PMC10144703, “Molecular Mechanism of Sirtuin 1 Inhibition by Human Immunodeficiency Virus 1 Tat Protein” (Life, 2023).
